The values that follow come from patent publication US20070010016A1.

The target of this assay is Adenovirus 5 receptor (on HeLa cells). Kind of assay: cell-based or functional assay.

For “Adenovirus 5 fiber protein (from UniProt P11818 1-581)”, the transduction of HeLa cells with Av1LacZ4 in the presence of competitor (beta-galactosidase positive cells, percent of control) was 0.1 to 1 mug/ml.
